Measurements from the supplement of paper PMC6755084.

System: F1*sub RNA substrate (template-directed ligation)
Assay: fraction ligated after 30 min (ligated reads / total reads); higher = more ligase activity; sequences stand for … in GAGACCGCAACTGAAAAGTTGT…AGTTCTGCACGTAGAAGCAAAAGGC
Conditions: 42 °C
Method in brief: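 Oligo-pool templates underwent PCR amplification, T7 transcription and gel purification to yield ribozyme variants. Gel-separated ligated and unligated bands were converted to complementary DNA with barcoded primers and sequenced on a MiSeq, keeping core bases of quality ≥20. The ratio of ligated reads to total reads gave the fraction ligated for every variant.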

Sequence | fraction ligated
TATCACTTGTCGTAAGCACTTTGGATGGGTTG [2d253] | 0.771
TATCACTTGTCGTAAGCACTTTGGATGGTTA [3d2148] | 0.153
TATCACTTGTCGTAAGCACTTTGGATGGTTG [3d2149] | 0.17
TATCACTTGTCGTAAGCACTTTGGATGGTTGA [2d251] | 0.216
TATCACTTGTCGTAAGCACTTTGGGGGTTGA [3d2141] | 0.129
TATCACTTGTCGTAAGCACTTTGGTGGGTTA [3d2143] | 0.0888
TATCACTTGTCGTAAGCACTTTGGTGGGTTG [3d2144] | 0.0518
TATCACTTGTCGTAAGCACTTTGGTGGGTTGA [2d249] | 0.14
TATCACTTGTCGTAAGCACTTTGGTGGTTGA [3d2142] | 0.118
TATCACTTGTCGTAAGCACTTTGTGGGTTGA [3d2136] | 0.0369
TATCACTTGTCGTAAGCATTGGATGGGTTGA [3d2121] | 0.756
TATCACTTGTCGTAAGCATTTGATGGGTTGA [3d2122] | 0.408
TATCACTTGTCGTAAGCATTTGGAGGGTTGA [3d2124] | 0.0316
TATCACTTGTCGTAAGCATTTGGATGGGTTA [3d2126] | 0.784
TATCACTTGTCGTAAGCATTTGGATGGGTTG [3d2127] | 0.833
TATCACTTGTCGTAAGCATTTGGATGGGTTGA [2d246] | 0.849
TATCACTTGTCGTAAGCATTTGGATGGTTGA [3d2125] | 0.17
TATCACTTGTCGTAAGCATTTGGTGGGTTGA [3d2123] | 0.0465
TATCACTTGTCGTAAGCCTTGGATGGGTTGA [3d2114] | 0.778
TATCACTTGTCGTAAGCCTTTGATGGGTTGA [3d2115] | 0.718
TATCACTTGTCGTAAGCCTTTGGAGGGTTGA [3d2117] | 0.252
TATCACTTGTCGTAAGCCTTTGGATGGGTTA [3d2119] | 0.79
TATCACTTGTCGTAAGCCTTTGGATGGGTTG [3d2120] | 0.782

Sequence | fraction ligated
TATCACTTGTCGTAAGCCTTTGGATGGGTTGA [2d245] | 0.781
TATCACTTGTCGTAAGCCTTTGGATGGTTGA [3d2118] | 0.364
TATCACTTGTCGTAAGCCTTTGGTGGGTTGA [3d2116] | 0.243
TATCACTTGTCGTAAGCTTTGGATGGGTTGA [3d2105] | 0.759
TATCACTTGTCGTACACTTTGGATGGGTTGA [3d1981] | 0.797
TATCACTTGTCGTAGAACTTGGATGGGTTGA [3d2014] | 0.845
TATCACTTGTCGTAGAACTTTGATGGGTTGA [3d2015] | 0.848
TATCACTTGTCGTAGAACTTTGGAGGGTTGA [3d2017] | 0.119
TATCACTTGTCGTAGAACTTTGGATGGGTTA [3d2019] | 0.854
TATCACTTGTCGTAGAACTTTGGATGGGTTG [3d2020] | 0.854
TATCACTTGTCGTAGAACTTTGGATGGGTTGA [2d224] | 0.864
TATCACTTGTCGTAGAACTTTGGATGGTTGA [3d2018] | 0.206
TATCACTTGTCGTAGAACTTTGGTGGGTTGA [3d2016] | 0.138
TATCACTTGTCGTAGAATTTGGATGGGTTGA [3d2013] | 0.832
TATCACTTGTCGTAGACACTGGATGGGTTGA [3d2035] | 0.778
TATCACTTGTCGTAGACACTTGATGGGTTGA [3d2036] | 0.657
TATCACTTGTCGTAGACACTTGGAGGGTTGA [3d2038] | 0.0635
TATCACTTGTCGTAGACACTTGGATGGGTTA [3d2040] | 0.757
TATCACTTGTCGTAGACACTTGGATGGGTTG [3d2041] | 0.782
TATCACTTGTCGTAGACACTTGGATGGGTTGA [2d227] | 0.803
TATCACTTGTCGTAGACACTTGGATGGTTGA [3d2039] | 0.095
TATCACTTGTCGTAGACACTTGGTGGGTTGA [3d2037] | 0.105
TATCACTTGTCGTAGACACTTTATGGGTTGA [3d2042] | 0.128

Sequence | fraction ligated
TATCACTTGTCGTAGACACTTTGAGGGTTGA [3d2044] | 0.0374
TATCACTTGTCGTAGACACTTTGATGGGTTA [3d2046] | 0.156
TATCACTTGTCGTAGACACTTTGATGGGTTG [3d2047] | 0.754
TATCACTTGTCGTAGACACTTTGATGGGTTGA [2d228] | 0.789
TATCACTTGTCGTAGACACTTTGATGGTTGA [3d2045] | 0.0405
TATCACTTGTCGTAGACACTTTGGAGGGTTA [3d2053] | 0.0985
TATCACTTGTCGTAGACACTTTGGAGGGTTG [3d2054] | 0.0621
TATCACTTGTCGTAGACACTTTGGAGGGTTGA [2d230] | 0.167
TATCACTTGTCGTAGACACTTTGGAGGTTGA [3d2052] | 0.072
TATCACTTGTCGTAGACACTTTGGATGGGTT [3d2057] | 0.819
TATCACTTGTCGTAGACACTTTGGATGGGTTA [2d232] | 0.825
TATCACTTGTCGTAGACACTTTGGATGGGTTG [2d233] | 0.843
TATCACTTGTCGTAGACACTTTGGATGGTTA [3d2055] | 0.406
TATCACTTGTCGTAGACACTTTGGATGGTTG [3d2056] | 0.452
TATCACTTGTCGTAGACACTTTGGATGGTTGA [2d231] | 0.678
TATCACTTGTCGTAGACACTTTGGGGGTTGA [3d2048] | 0.0891
TATCACTTGTCGTAGACACTTTGGTGGGTTA [3d2050] | 0.0674
TATCACTTGTCGTAGACACTTTGGTGGGTTG [3d2051] | 0.101
TATCACTTGTCGTAGACACTTTGGTGGGTTGA [2d229] | 0.287
TATCACTTGTCGTAGACACTTTGGTGGTTGA [3d2049] | 0.0676
TATCACTTGTCGTAGACACTTTGTGGGTTGA [3d2043] | 0.0334
TATCACTTGTCGTAGACATTGGATGGGTTGA [3d2028] | 0.815
TATCACTTGTCGTAGACATTTGATGGGTTGA [3d2029] | 0.309

Sequence | fraction ligated
TATCACTTGTCGTAGACATTTGGAGGGTTGA [3d2031] | 0.0197
TATCACTTGTCGTAGACATTTGGATGGGTTA [3d2033] | 0.799
TATCACTTGTCGTAGACATTTGGATGGGTTG [3d2034] | 0.815
TATCACTTGTCGTAGACATTTGGATGGGTTGA [2d226] | 0.842
TATCACTTGTCGTAGACATTTGGATGGTTGA [3d2032] | 0.147
TATCACTTGTCGTAGACATTTGGTGGGTTGA [3d2030] | 0.0449
TATCACTTGTCGTAGACCTTGGATGGGTTGA [3d2021] | 0.79
TATCACTTGTCGTAGACCTTTGATGGGTTGA [3d2022] | 0.759
TATCACTTGTCGTAGACCTTTGGAGGGTTGA [3d2024] | 0.211
TATCACTTGTCGTAGACCTTTGGATGGGTTA [3d2026] | 0.798
TATCACTTGTCGTAGACCTTTGGATGGGTTG [3d2027] | 0.777
TATCACTTGTCGTAGACCTTTGGATGGGTTGA [2d225] | 0.814
TATCACTTGTCGTAGACCTTTGGATGGTTGA [3d2025] | 0.344
TATCACTTGTCGTAGACCTTTGGTGGGTTGA [3d2023] | 0.234
TATCACTTGTCGTAGACTTTGGATGGGTTGA [3d2003] | 0.814
TATCACTTGTCGTAGCACTTGGATGGGTTGA [3d2006] | 0.741
TATCACTTGTCGTAGCACTTTGATGGGTTGA [3d2007] | 0.761
TATCACTTGTCGTAGCACTTTGGAGGGTTGA [3d2009] | 0.101
TATCACTTGTCGTAGCACTTTGGATGGGTTA [3d2011] | 0.728
TATCACTTGTCGTAGCACTTTGGATGGGTTG [3d2012] | 0.792
TATCACTTGTCGTAGCACTTTGGATGGGTTGA [2d223] | 0.823
TATCACTTGTCGTAGCACTTTGGATGGTTGA [3d2010] | 0.171
TATCACTTGTCGTAGCACTTTGGTGGGTTGA [3d2008] | 0.0859

Sequence | fraction ligated
TATCACTTGTCGTAGCATTTGGATGGGTTGA [3d2005] | 0.815
TATCACTTGTCGTAGCCTTTGGATGGGTTGA [3d2004] | 0.768
TATCACTTGTCGTGAACTTTGGATGGGTTGA [3d1983] | 0.773
TATCACTTGTCGTGACACTTGGATGGGTTGA [3d1986] | 0.779
TATCACTTGTCGTGACACTTTGATGGGTTGA [3d1987] | 0.508
TATCACTTGTCGTGACACTTTGGAGGGTTGA [3d1989] | 0.0822
TATCACTTGTCGTGACACTTTGGATGGGTTA [3d1991] | 0.703
TATCACTTGTCGTGACACTTTGGATGGGTTG [3d1992] | 0.826
TATCACTTGTCGTGACACTTTGGATGGGTTGA [2d221] | 0.808
TATCACTTGTCGTGACACTTTGGATGGTTGA [3d1990] | 0.0934
TATCACTTGTCGTGACACTTTGGTGGGTTGA [3d1988] | 0.135
TATCACTTGTCGTGACATTTGGATGGGTTGA [3d1985] | 0.809
TATCACTTGTCGTGACCTTTGGATGGGTTGA [3d1984] | 0.784
TATCACTTGTCGTGCACTTTGGATGGGTTGA [3d1982] | 0.783
TATCACTTGTCTAAAACTTTGGATGGGTTGA [3d1836] | 0.789
TATCACTTGTCTAAACACTTGGATGGGTTGA [3d1839] | 0.776
TATCACTTGTCTAAACACTTTGATGGGTTGA [3d1840] | 0.753
TATCACTTGTCTAAACACTTTGGAGGGTTGA [3d1842] | 0.133
TATCACTTGTCTAAACACTTTGGATGGGTTA [3d1844] | 0.758
